Test results taken from article doi:10.1101/2024.10.15.618347.

Biological target: YTHDC1 YTH domain (UniProt Q96MU7 345-509)
Experiment: EMSA

Binder: AACUUAAUGUUUUUGCAUUGGACUUUGAGUU (ssRNA, m6A at position 22 (GGACU to GG(m6A)CU)) [MALAT1 oligo, m6A]
- binding result: binds
